Data from paper PMC8849053.
Where “and” joins values, the source holds several entries; their conditions need not be identical. Equal entries are not always repeated.

Experiments:
[1] = target: SARS-CoV-2 spike protein S1 (SARS-CoV-2); assay: ITC
[2] = target: SARS-CoV-2 spike protein S2 (SARS-CoV-2); assay: ITC

In the case of “truncated canavalin (from UniProt P10562 242-445) (domain or fragment)”, the Kd [1] is reported as 20 µM and 100 µM, the dH [1] is reported as -6 kcal/mol and -7 kcal/mol and the Kd [2] is reported as 10 µM and 80 µM. For the same substance, the dH [2] was -0.8 kcal/mol.
